Measurements from PMC3539977, “Plant Coilin: Structural Characteristics and RNA-Binding Properties” (PLoS ONE, 2013).

What was measured:
[1] = test system: Co-86-608 (Arabidopsis thaliana); assay: EMSA; settings: apparent; RNA taken as U1 snRNA; EMSA: 20 mM Tris-HCl pH 7.5, 1 mM DTT, 3 mM MgCl2, 50 mM NaCl, on ice 15 min; 0.1 ug RNA, 2% Tris-acetate agarose gel
[2] = test system: IDD (Arabidopsis thaliana); assay: EMSA; settings: apparent; EMSA: 20 mM Tris-HCl pH 7.5, 1 mM DTT, 3 mM MgCl2, 50 mM NaCl, on ice 15 min; 0.1 ug RNA, 2% Tris-acetate agarose gel
[3] = test system: IDD-118-212 (Arabidopsis thaliana); assay: EMSA; settings: apparent; EMSA: 20 mM Tris-HCl pH 7.5, 1 mM DTT, 3 mM MgCl2, 50 mM NaCl, on ice 15 min; 0.1 ug RNA, 2% Tris-acetate agarose gel
[4] = test system: IDD-212-350 (Arabidopsis thaliana); assay: EMSA; settings: apparent; EMSA: 20 mM Tris-HCl pH 7.5, 1 mM DTT, 3 mM MgCl2, 50 mM NaCl, on ice 15 min; 0.1 ug RNA, 2% Tris-acetate agarose gel
[5] = test system: IDD-212-350-NLS2 (Arabidopsis thaliana); assay: EMSA; settings: apparent; EMSA: 20 mM Tris-HCl pH 7.5, 1 mM DTT, 3 mM MgCl2, 50 mM NaCl, on ice 15 min; 0.1 ug RNA, 2% Tris-acetate agarose gel
[6] = test system: NOD (Arabidopsis thaliana); assay: EMSA; settings: apparent; EMSA: 20 mM Tris-HCl pH 7.5, 1 mM DTT, 3 mM MgCl2, 50 mM NaCl, on ice 15 min; 0.1 ug RNA, 2% Tris-acetate agarose gel
[7] = test system: NOD-RK1 (Arabidopsis thaliana); assay: EMSA; settings: apparent; EMSA: 20 mM Tris-HCl pH 7.5, 1 mM DTT, 3 mM MgCl2, 50 mM NaCl, on ice 15 min; 0.1 ug RNA, 2% Tris-acetate agarose gel
[8] = biological target: the molecule itself; assay: dynamic light scattering; protein at 0.05 mg/ml in 1 mM phosphate buffer pH 7.5, Zetasizer Nano ZS; free protein, and with U1 snRNA at a protein:RNA molar ratio of 5:1

## U1 snRNA
[1]
  Kd: 40 nM
[2]
  Kd: 40 nM
[3]
  Kd: 1420 nM
[4]
  Kd: 60 nM
[5]
  Kd: 480 nM
[6]
  Kd: 760 nM
[7]
  Kd: 2250 nM

B1: Atcoilin N-terminal ordered domain (NOD), residues 1-117 (domain or fragment, Arabidopsis thaliana, UniProt Q8RWK8 1-117, looked up)
chain: MEEEKVRVRLVFEDRRILSKYQKKQGLTRSWVVLNRKCHRTISEFSDHIFHTFSLCEACPHGLSLSMEGFVLPPFESSCVLKDKDIVCVKKKKESLLEIVGEDSDENVYNAIEVEER
notes: coilin of Arabidopsis thaliana (NM_101173.4; GI:42562030), NOD, 1-117 aa residues; also called N-terminal domain; source: E. coli JM109, purified under denaturing conditions (Ni-NTA agarose), renatured by dialysis
[8]
  binding result: binds

B2: Arabidopsis thaliana coilin (Atcoilin), wild type (natural protein, UniProt Q8RWK8 1-608, looked up)
chain: MEEEKVRVRLVFEDRRILSKYQKKQGLTRSWVVLNRKCHRTISEFSDHIFHTFSLCEACPHGLSLSMEGFVLPPFESSCVLKDKDIVCVKKKKESLLEIVGEDSDENVYNAIEVEERPQIRPGEMLLANEEFQKETGGYESESEEDELEEEAEEFVPEKKASKKRKTSSKNQSTKRKKCKLDTTEESPDERENTAVVSNVVKKKKKKKSLDVQSANNDEQNNDSTKPMTKSKRSSQQEESKEHNDLCQLSAETKKTPSRSARRKKAKRQWLREKTKLEKEELLQTQLVVAPSQKPVITIDHQATKEKHCETLENQQAEEVSDGFGDEVVPVEVRPGHIRFKPLAGTDEASLDSEPLVENVLWNGNMTKKKGQKWGTEKSGFSKRYAQDFNEDATTQPAEAETLANCPIDYEQLVAYTGSVKKGDVIAYRLIELTSSWTPEVSSFRVGKISYYDPDSKMVTLMPVQEFPIEKKTEEDDDFCMQPDTSLYKEDGSLEIEFSALLDVRSVKTSSSDSAEVAKSALPEPDQSAKKPKLSANKELQTPAKENGEVSPWEELSEALSAKKAALSQANNGWNKKGSSSGGSWSYKALRGSAMGPVMNYLRSQKEI
notes: coilin of Arabidopsis thaliana, a 608-amino acid protein (NM_101173.4; GI:42562030); Cloned into the PQE30 vector; forms oligomers larger than a decamer in solution by DLS; also called wt coilin; wt Atcoilin; source: E. coli JM109, purified under denaturing conditions (Ni-NTA agarose), renatured by dialysis
[8]
  stoichiometry N: > 10
